Assay results from US12384850 (SYSTIMMUNE, dated 2025).

B1: SI-35E21 (bispecific antibody, not shown: small tags and cut ends)
heavy (part 1 of 7): DIQMTQSPSTLSASVGDRVTITCQSSQSVYSNWFSWYQQKPGKAPKLLIYSASTLASGVPSRFSGSGSGTEFTLTISSLQPDDFATYYCAGGYNTVIDTFAFGGGTKVEIK
heavy (part 2 of 7): EVQLLESGGGLVQPGGSLRLSCAASGIDFSRRYYMCWVRQAPGKGLEWIACIYTGSRDTPHYASSAKGRFTISRDNSKNTLYLQMNSLRAEDTAVYYCAREGSLWGQGTLVTVSS
heavy (part 3 of 7): not shown
heavy (part 4 of 7): EVQLVESGGGLVQPGGSLRLSCTASGFSLSSYAMSWVRQAPGRGLEWIGIIYASGSTYYASSAKGRFTISKDNTKNTVDLQMNSLRAEDTAVYYCARIYDGMDLWGQGTLVTVSS
heavy (part 5 of 7): DIQMTQSPSSLSASVGDRVTINCQASQNIYSYLSWYQQKPGKVPKRLIYLASTLASGVPSRFSGSGSGTDYTLTISSLQPEDVATYYCQSNYNGNYGFGGGTKVEIK
heavy (part 6 of 7): EVQLVESGGGLVQPGGSLRLSCAASGFTISTNAMSWVRQAPGKGLEWIGVITGRDITYYASWAKGRFTISRDNSKNTLYLQMNSLRAEDTAVYYCARDGGSSAITSNNIWGQGTLVTVSS
heavy (part 7 of 7): DVVMTQSPSTLSASVGDRVTINCQASESISSWLAWYQQKPGKAPKLLIYEASKLASGVPSRFSGSGSGTEFTLTISSLQPDDFATYYCQGYFYFISRTYVNSFGGGTKVEIK
light: AYDMTQSPSSVSASVGDRVTIKCQASEDIYSFLAWYQQKPGKAPKLLIHSASSLASGVPSRFSGSGSGTDFTLTISSLQPEDFATYYCQQGYGKNNVDNAFGGGTKVEIKRTVAAPSVFIFPPSDEQLKSGTASVVCLLNNFYPREAKVQWKVDNALQSGNSQESVTEQDSKDSTYSLSSTLTLSKADYEKHKVYACEVTHQGLSSPVTKSFNRGEC
notes: Tetra-specific; the listing has only VHv3/VLv2
B2: SI-35E22 (bispecific antibody, not shown: small tags and cut ends)
heavy (part 1 of 7): ALVMTQSPSTLSASVGDRVTINCQASEDIDTYLAWYQQKPGKAPKLLIFYASDLASGVPSRFSGSGSGTEFTLTISSLQPDDFATYYCQGGYYTSSADTRGAFGGGTKVEIK
heavy (part 2 of 7): QSLVESGGGLVQPGGSLRLSCAASGFSFSSNYWICWVRQAPGKGLEWIACIYVGSSGDTYYASSAKGRFTISRDNSKNTLYLQMNSLRAEDTAVYYCARDSSSYYMFNLWGQGTLVTVSS
heavy (part 3 of 7): not shown
heavy (part 4 of 7): B1 heavy (part 4 of 7)
heavy (part 5 of 7): B1 heavy (part 5 of 7)
heavy (part 6 of 7): B1 heavy (part 6 of 7)
heavy (part 7 of 7): B1 heavy (part 7 of 7)
light: B1 light
notes: as for B1
B3: SI-35E23 (bispecific antibody, not shown: small tags and cut ends)
heavy (part 1 of 7): DVVMTQSPSSVSASVGDRVTITCQASQNIRTYLSWYQQKPGKAPKLLIYAAANLASGVPSRFSGSGSGTDFTLTISDLEPGDAATYYCQSTYLGTDYVGGAFGGGTKVEIK
heavy (part 2 of 7): RSLVESGGGLVQPGGSLRLSCTASGFTISSYHMQWVRQAPGKGLEYIGTISSGGNVYYASSARGRFTISRPSSKNTVDLQMNSLRAEDTAVYYCARDSGYSDPMWGQGTLVTVSS
heavy (part 3 of 7): not shown
heavy (part 4 of 7): B1 heavy (part 4 of 7)
heavy (part 5 of 7): B1 heavy (part 5 of 7)
heavy (part 6 of 7): B1 heavy (part 6 of 7)
heavy (part 7 of 7): B1 heavy (part 7 of 7)
light: B1 light
notes: as for B1
B4: SI-35E24 (bispecific antibody, not shown: small tags and cut ends)
heavy (part 1 of 7): B1 heavy (part 1 of 7)
heavy (part 2 of 7): B1 heavy (part 2 of 7)
heavy (part 3 of 7): not shown
heavy (part 4 of 7): EVQLVESGGGLVQPGGSLRLSCAASGFSLNNYWMSWVRQAPGKGLEWIGTISSGAYTWFATWATGRFTISRDNSKNTLYLQMNSLRAEDTAVYYCARYSSTTDWTYFNIWGQGTLVTVSS
heavy (part 5 of 7): DIQMTQSPSTLSASVGDRVTITCQASQSINNYLAWYQQKPGKAPKLLIYRASTLESGVPSRFSGSGSGTEFTLTISSLQPDDFATYYCQSYNGVGRTAFGGGTKVEIK
heavy (part 6 of 7): B1 heavy (part 6 of 7)
heavy (part 7 of 7): B1 heavy (part 7 of 7)
light: B1 light
notes: Tetra-specific; the listing has only VHv3/VLv2; also called SI-3524
B5: SI-35E25 (bispecific antibody, not shown: small tags and cut ends)
heavy (part 1 of 7): B2 heavy (part 1 of 7)
heavy (part 2 of 7): B2 heavy (part 2 of 7)
heavy (part 3 of 7): not shown
heavy (part 4 of 7): B4 heavy (part 4 of 7)
heavy (part 5 of 7): B4 heavy (part 5 of 7)
heavy (part 6 of 7): B1 heavy (part 6 of 7)
heavy (part 7 of 7): B1 heavy (part 7 of 7)
light: B1 light
notes: as for B1
B6: SI-35E26 (bispecific antibody, not shown: small tags and cut ends)
heavy (part 1 of 7): B3 heavy (part 1 of 7)
heavy (part 2 of 7): B3 heavy (part 2 of 7)
heavy (part 3 of 7): not shown
heavy (part 4 of 7): B4 heavy (part 4 of 7)
heavy (part 5 of 7): B4 heavy (part 5 of 7)
heavy (part 6 of 7): B1 heavy (part 6 of 7)
heavy (part 7 of 7): B1 heavy (part 7 of 7)
light: B1 light
notes: as for B1
B7: SI-35E19 (bispecific antibody, not shown: small tags and cut ends)
heavy (part 1 of 7): B2 heavy (part 1 of 7)
heavy (part 2 of 7): B2 heavy (part 2 of 7)
heavy (part 3 of 7): not shown
heavy (part 4 of 7): EVQLLESGGGLVQPGGSLRLSCAASGFTISRYHMTWVRQAPGKGLEWIGHIYVNNDDTDYASSAKGRFTISRDNSKNTLYLQMNSLRAEDTATYFCARLDVGGGGAYIGDIWGQGTLVTVSS
heavy (part 5 of 7): DIQMTQSPSSLSASVGDRVTITCQSSQSVYNNNDLAWYQQKPGKVPKLLIYYASTLASGVPSRFSGSGSGTDFTLTISSLQPEDVATYYCAGGYDTDGLDTFAFGGGTKVEIK
heavy (part 6 of 7): B1 heavy (part 6 of 7)
heavy (part 7 of 7): B1 heavy (part 7 of 7)
light: B1 light
notes: as for B1
B8: SI-35E20 (bispecific antibody, not shown: small tags and cut ends)
heavy (part 1 of 7): B3 heavy (part 1 of 7)
heavy (part 2 of 7): B3 heavy (part 2 of 7)
heavy (part 3 of 7): not shown
heavy (part 4 of 7): B7 heavy (part 4 of 7)
heavy (part 5 of 7): B7 heavy (part 5 of 7)
heavy (part 6 of 7): B1 heavy (part 6 of 7)
heavy (part 7 of 7): B1 heavy (part 7 of 7)
light: B1 light
notes: as for B1

Target: T1, human PD-L1 (human, UniProt Q9NZQ7 19-290)
T1 construct: whole, on cells; also called PDL1 expressing CHO cells; human PD-L1 transfected CHO cells
T1 sequence (Q9NZQ7 19-290): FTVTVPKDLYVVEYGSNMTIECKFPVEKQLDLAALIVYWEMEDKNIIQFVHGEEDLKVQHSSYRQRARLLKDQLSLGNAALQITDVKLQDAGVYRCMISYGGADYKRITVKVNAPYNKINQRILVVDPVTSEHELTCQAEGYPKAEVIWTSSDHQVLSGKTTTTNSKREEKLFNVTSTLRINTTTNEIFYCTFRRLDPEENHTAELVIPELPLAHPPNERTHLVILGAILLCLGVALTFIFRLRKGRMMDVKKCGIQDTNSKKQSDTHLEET
Assay: FACS on human PD-L1 transfected CHO cells
Method: (§1) Example 3: FACS Analysis of Tetra-Specific GNC Antibody Binding to Human PDL1 Transfected CHO Cells The tetra-specific GNC antibodies listed in TABLEs 3 and 4 were tested for binding to Chinese hamster ovary cells (CHO) cells stably expressing full length human ROR1. Antibodies were prepared at 2× final concentration and titrated 1:5 across 3 wells of a 96 well plate in 50 ul of PBS/2% FBS and then 5,000 ROR1-CHO cells in 50 ul PBS/2% FBS were added. This mixture was incubated for 30 minutes on ice, washed once with 200 ul PBS/2% FBS, and then the secondary antibody PE Goat anti-Human IgG Fc at 1:1000 dilution of stock was added, and this mixture was incubated for 30 minutes on ice. Cells were washed 2×200 ul PBS/2% FBS, resuspended in 50 ul PBS/2% FBS and analyzed on a BD LSRFORTESSA and the binding profile is shown in FIG. 6.

Row | Binder | binding result
1 | B1 | binds
2 | B2 | binds
3 | B3 | binds
4 | B4 | binds
5 | B5 | binds
6 | B6 | binds
7 | B7 | binds
8 | B8 | binds

Target: T2, full-length human ROR1 (human, UniProt Q01973 30-937)
T2 construct: whole, on cells; also called human ROR1 transfected CHO cells; ROR1-CHO cells
T2 sequence (Q01973 30-937): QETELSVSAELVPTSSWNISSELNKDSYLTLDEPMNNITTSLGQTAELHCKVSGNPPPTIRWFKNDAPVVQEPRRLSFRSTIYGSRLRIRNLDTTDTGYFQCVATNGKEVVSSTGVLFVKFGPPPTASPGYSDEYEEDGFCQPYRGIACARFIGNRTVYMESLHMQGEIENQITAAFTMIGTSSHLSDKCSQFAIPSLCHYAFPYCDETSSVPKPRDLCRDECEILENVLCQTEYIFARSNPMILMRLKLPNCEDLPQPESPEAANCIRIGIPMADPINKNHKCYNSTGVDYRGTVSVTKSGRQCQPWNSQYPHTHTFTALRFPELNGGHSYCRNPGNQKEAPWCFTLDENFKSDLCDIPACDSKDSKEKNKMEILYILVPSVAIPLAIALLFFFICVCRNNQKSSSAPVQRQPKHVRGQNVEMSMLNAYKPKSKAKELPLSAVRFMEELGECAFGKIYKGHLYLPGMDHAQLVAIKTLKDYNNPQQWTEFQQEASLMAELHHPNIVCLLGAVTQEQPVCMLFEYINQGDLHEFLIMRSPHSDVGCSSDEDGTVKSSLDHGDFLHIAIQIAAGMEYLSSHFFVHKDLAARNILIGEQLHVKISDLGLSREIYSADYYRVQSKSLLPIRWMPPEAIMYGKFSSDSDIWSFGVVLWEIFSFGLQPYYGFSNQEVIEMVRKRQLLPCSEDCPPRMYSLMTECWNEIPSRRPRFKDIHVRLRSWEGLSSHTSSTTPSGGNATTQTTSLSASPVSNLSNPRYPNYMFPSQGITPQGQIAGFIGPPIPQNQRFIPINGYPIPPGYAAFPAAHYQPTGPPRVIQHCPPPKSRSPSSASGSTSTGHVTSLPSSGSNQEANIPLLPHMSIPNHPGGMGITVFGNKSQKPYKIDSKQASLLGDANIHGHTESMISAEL
Assay: FACS on CHO cells stably expressing full-length human ROR1
Method: as §1, with “Example 1:” for “Example 3:”, “Tetra-Specific Specific” for “Tetra-Specific GNC”, “Human ROR1” for “Human PDL1”, “expressing a […]” for “expressing full length”, “FIG. 4.” for “FIG. 6.”

Row | Binder | binding result
9 | B1 | binds
10 | B2 | binds
11 | B3 | binds
12 | B4 | no binding
13 | B5 | no binding
14 | B6 | no binding
15 | B7 | binds
16 | B8 | binds

Target: T3, human 41BB (human, UniProt Q07011 24-255)
T3 construct: whole, on cells; also called 41BB expressing CHO cells; human 41BB transfected CHO cells
T3 sequence (Q07011 24-255): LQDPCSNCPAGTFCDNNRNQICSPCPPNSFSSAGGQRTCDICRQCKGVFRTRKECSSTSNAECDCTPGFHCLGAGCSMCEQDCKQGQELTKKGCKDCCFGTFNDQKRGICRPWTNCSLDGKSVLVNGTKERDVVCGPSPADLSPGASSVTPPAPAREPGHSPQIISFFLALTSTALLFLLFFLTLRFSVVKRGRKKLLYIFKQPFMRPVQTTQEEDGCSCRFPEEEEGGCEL
Assay: FACS on human 41BB transfected CHO cells
Method: as §1, with “2:” for “3:”, “41BB” for “PDL1”, “a […]” for “full length”, “5. All of the tetra-specific GNC antibodies except for the control SI-27E12 contain a 41BB binding domain, 460C3, 420H5, or 466F6 and bound to 41BB expressing CHO cells with varying intensity.” for “6.”

Row | Binder | binding result
17 | B1 | binds
18 | B2 | binds
19 | B3 | binds
20 | B4 | binds
21 | B5 | binds
22 | B6 | binds
23 | B7 | binds
24 | B8 | binds
